From US7172865B2, “Rapid and sensitive assay for the detection and quantification of coregulators of nucleic acid binding factors” (Saint Louis University, priority 2001, dated 2007)

Columns and labels:
[1] = system: CAP5/CAP3 and CAP4/CAP1 nucleic acid duplexes; assay: CAP assay with 7-diethylaminocoumarin-3-carboxylic acid donor and dabcyl acceptor; format: binding, E. coli; conditions: 100 nM CAP, 50 nM duplexes, 200 μM cAMP
Text: (§1) Amino-Modifier C2 dT (Glen Research, Sterling, Va.) was incorporated into positions that are equivalent to the positions at which fluorescein-dT and dabcyl-dT has been used previously in CAP2 and CAP4 oligonucleotides, respectively. Amino-Modifier C2 dT contains a reactive aliphatic amino group that can be used to covalently attach any amino-reactive fluorescence probe. CAP5 (SEQ ID NO:7) and CAP6 (SEQ ID NO:8) oligonucleotides were modified with 7-diethylaminocoumarin-3-carboxylic acid, succinimidyl ester. This fluorochrome is excited at 433 nm and the maximum emission occurs at 475 nm providing the possibility of testing the assay with different emission colors. To modify the fluorochrome, ˜20 nmoles of the oligonucleotides were dissolved in 50 μl of 50 mM NaHCO3 (pH 8.3) and 50 nmoles of dry 7-diethylaminocoumarin-3-carboxylic acid, succinimidyl ester (Molecular Probes, Eugene, Oreg.) were added. The reaction mixture was incubated overnight at room temperature. […]
In the first experiment (FIG. 8), the pair of CAP5/CAP3 and CAP4/CAP1 nucleic acid duplexes were tested in the CAP assay. In this format, the 7-diethylaminocoumarin-3-carboxylic acid label present in the CAP5/CAP3 duplex functions as the fluorescence donor and the dabcyl label present in the CAP4/CAP1 duplex functions as a fluorescence acceptor.

[2] = system: CAP6/CAP1 and CAP2/CAP3 nucleic acid duplexes; assay: CAP assay with coumarin donor and fluorescein acceptor; format: binding, E. coli; conditions: 0 to 150 nM CAP, excitation 433 nm
Text: as §1, with “colors.” for “colors. To modify the fluorochrome, ˜20 nmoles of the oligonucleotides were dissolved in 50 μl of 50 mM NaHCO3 (pH 8.3) and 50 nmoles of dry 7-diethylaminocoumarin-3-carboxylic acid, succinimidyl ester (Molecular Probes, Eugene, Oreg.) were added. The reaction mixture was incubated overnight at room temperature.”
In a second experiment (FIG. 9), the pair of CAP6/CAP1 and CAP2/CAP3 nucleic acid duplexes were tested for the performance in CAP assay. In this assay format, the 7-diethylaminocoumarin-3-carboxylic acid present in the CAP6/CAP1 duplex functioned as a fluorescence donor and the fluorescein present in the CAP2/CAP3 duplex functioned as an acceptor. […] Also, as shown in the inset of FIG. 9, the ratio between the fluorescence intensities at 520 nm and 475 nm may be used to determine the concentration of nucleic acid binding proteins. […]

[3] = system: CAP5/CAP3 and CAP1/CAP4 duplexes; assay: two-color simultaneous detection, coumarin-labeled CAP constructs; format: binding; conditions: excitation 433 nm, one protein only
Text: The compatibility of the assays described in the instant invention with a variety of fluorescence probes emitting at different wavelengths allows for the designing of variations in which two or more proteins may be detected simultaneously. Nucleic acid constructs specific for each of the proteins to be detected may be labeled with probes that emit light at different wavelengths. In this example, the reaction mixture contained nucleic acid constructs labeled with 7-diethylaminocoumarin-3-carboxylic acid for detecting CAP protein (described in EXAMPLE 2) and nucleic acid constructs labeled with fluorescein for detecting TrpR protein (described in EXAMPLE 6). Specifically, 100 nM CAP5/CAP3, 120 nM CAP1/CAP4, 100 nM TRP2/TRP3, and 120 nM TRP1/TRP4 duplexes were present in the reaction mixture.
The fluorescence spectra with the excitation at 433 nm (excitation of 7-diethylaminocoumarin-3-carbo acid, FIG. 17A) and with the excitation at 490 nm (excitation of fluorescein, FIG. 17B) were recorded in the absence of the proteins (curves 1), in the presence of CAP only (curves 2), in the presence of TrpR only (curves 3), and in the presence of both CAP and TrpR (curves 4). In the presence of only CAP there was no change in the fluorescein signal (FIG. 17B, curve 2) whereas about 60% quenching of the 7-diethylaminocoumarin-3-carbox acid signal was observed (FIG. 17A, curve 2). […]

[4] = system: CAP nucleic acid binding element (CAP10/CAP11 and CAP12/CAP13); assay: multiwell plate assay, immobilized CAP10/CAP11 and biotin-labeled CAP12/CAP13, streptavidin-peroxidase detection; conditions: for Absorbance (450 nm), + CAP: 200 μM cAMP
Procedure: To illustrate the extensive flexibility of the invention in terms of detection mode, an experiment following the general design depicted in FIG. 1E was performed. The following oligonucleotides, which when fully assembled contain a complete CAP nucleic acid binding element, were synthesized (X=amino-dT; B=biotin):
The CAP10 oligonucleotide was hybridized with the CAP11 oligonucleotide to generate the first nucleic acid component. The CAP 12 oligonucleotide was hybridized with the CAP13 oligonucleotide to generate the second nucleic acid component. For hybridization, appropriate oligonucleotides were (1) mixed at 10 μM concentration in 100 μl of buffer (500 mM Na2HPO4, pH 8.6, 1 mM EDTA, in the case of CAP10/CAP11 oligonucleotides; and 20 mM Tris, pH 8.0, 100 mM NaCl, 10 μM EDTA, in the case of CAP12/CAP13 oligonucleotides), (2) heated for 1 min at 95° C., and then (3) cooled to 25° C for 1 hr. The first nucleic acid component (CAP10/CAP11 half-site duplex) was covalently attached to the wells of a N-oxysuccinimide-activated 96 well plate (DNA-BIND, Corning, Acton, Mass.) by incubating 200 μl of first nucleic acid component (at 100 nM) per well in 500 mM Na2HPO4 (pH 8.6), 1 mM EDTA buffer for 1 hr followed by washing with 50 mM Tris (pH 8.0), 100 mM NaCl, 1 mM EDTA containing 0.1 mg/ml BSA. […] After incubation for 1 hr at room temperature, the wells were washed twice with the buffer followed with the addition of streptavidin-linked horseradish peroxidase (Pierce, Rockford, Ill.) at the dilution recommended by the manufacturer. After 30 min of incubation, the wells were washed twice with buffer followed with the addition of 100 μl of Turbo-TMB™ peroxidase substrate solution (Pierce, Rockford, Ill.). […] The absorbance at 450 nm of the sample and control wells were read using a standard microplate reader.

B1: CAP: bacterial transcription activator from E. coli which binds DNA in a sequence specific, cAMP-dependent manner (protein, UniProt P0ACJ8 2-210, looked up)
DNA-binding transcriptional …: VLGKPQTDPTLEWFLSHCHIHKYPSKSTLIHQGEKAETLYYIVKGSVAVLIKDEEGKEMILSYLNQGDFIGELGLFEEGQERSAWVRAKTACEVAEISYKKFRQLIQVNPDILMRLSAQMARRLQVTSEKVGNLAFLDVTGRIAQTLLNLAKQPDAMTHPDGMQIKITRQEIGQIVGCSRETVGRILKMLEDQNLISAHGKTIVVYGTR
quenching of the fluorescence signal [1]: ~70% | change of emission peaks [2]: pronounced quenching of the peak at 475 nm and a pronounced enhancement of the peak at 520 nm | quenching of the 7-diethylaminocoumarin-3-carboxylic acid signal [3]: about 60% | increase in absorbance signal compared to controls without CAP or cAMP ([4]; 10 nM CAP12/CAP13): approximately 3 fold | Absorbance (450 nm), + CAP ([4]; 10 nM CAP12/CAP13, 250 nM CAP): 0.7308 | Absorbance (450 nm), + CAP ([4]; 20 nM CAP12/CAP13, 250 nM CAP): 0.8584
